Each block holds one binder with its values, some of them ahead of it.
Legend:
[1] = molecular target: T1, N-terminal FLAG-tagged human ROBO4 extracellular region/domain deletion variant hROBO4-341 (human, UniProt Q8WZ75 341-1007); test: flow cytometry, HEK293 cells transfected with pCI-FLAG-hROBO4-341, anti-mouse IgG FITC; control histogram IgG (Mouse IgG2a)
T1 construct: On transfected HEK293 cells; also called pCI-FLAG-hROBO4-341; pCI-hROBO4-341
T1 sequence: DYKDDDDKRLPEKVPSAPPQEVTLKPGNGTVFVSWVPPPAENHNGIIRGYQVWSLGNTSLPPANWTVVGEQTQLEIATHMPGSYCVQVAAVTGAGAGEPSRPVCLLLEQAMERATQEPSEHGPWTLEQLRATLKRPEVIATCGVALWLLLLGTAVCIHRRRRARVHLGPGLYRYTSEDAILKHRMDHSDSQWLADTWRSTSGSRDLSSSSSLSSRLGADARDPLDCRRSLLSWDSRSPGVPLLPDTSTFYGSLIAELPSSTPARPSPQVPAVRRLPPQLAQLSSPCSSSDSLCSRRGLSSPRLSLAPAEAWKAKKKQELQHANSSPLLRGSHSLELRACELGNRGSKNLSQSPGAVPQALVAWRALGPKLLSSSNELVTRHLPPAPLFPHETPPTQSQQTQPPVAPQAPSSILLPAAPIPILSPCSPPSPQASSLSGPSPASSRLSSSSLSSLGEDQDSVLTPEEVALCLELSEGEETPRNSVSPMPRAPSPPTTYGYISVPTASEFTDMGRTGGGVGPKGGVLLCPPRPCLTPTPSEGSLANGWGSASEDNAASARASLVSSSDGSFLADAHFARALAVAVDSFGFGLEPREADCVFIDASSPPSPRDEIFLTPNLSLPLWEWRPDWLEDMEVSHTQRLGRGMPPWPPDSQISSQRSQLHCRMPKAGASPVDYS
Protocol: HEK293 cells were inoculated at a concentration of 1.5×10⁶ cells/dish to a 60-mm dish (manufactured by Corning Inc.) and cultured overnight in a DMEM medium containing 10% FBS at 37° C. under 5% CO₂ conditions. […] On the next day, the expression vector-transfected cells were treated with TrypLE Express (manufactured by Life Technologies Corp.), washed with PBS containing 5% FBS, and then suspended in PBS containing 5% FBS. The obtained cell suspension was used in flow cytometry analysis.
Each cell suspension prepared in 4)-5-1 was centrifuged, and the supernatant was removed. Then, MAb1, a positive control Monoclonal ANTI-FLAG M2 antibody produced in mouse, or a negative control Mouse IgG2a was added at a concentration of 10 μg/mL to 2×10⁵ expression vector-transfected cells, and the resulting suspension was left standing at 4° C. for 1 hour. The cells were washed once with PBS containing 5% FBS. Then, Anti-Mouse IgG FITC conjugate diluted 1000-fold with PBS containing 5% FBS was added thereto, and the resulting suspension was left standing at 4° C. for 1 hour. […] Data was analyzed using Flowjo. The histogram of FITC fluorescence intensity was prepared. The antibody was determined to bind to a cell when the histogram of MAb1 was shifted to a stronger fluorescence intensity region compared with the histogram of the negative control Mouse IgG2a. […]

[2] = molecular target: T2, rat ROBO4 (pCI-raROBO4-transfected HEK293 cells) (rat, UniProt Q80W87 38-949 at identity 0.93)); test: flow cytometry (FC500), HEK293 cells transfected with pCI-raROBO4, FITC goat anti-human IgG Fc; control histogram IgG (human IgG)
T2 chain: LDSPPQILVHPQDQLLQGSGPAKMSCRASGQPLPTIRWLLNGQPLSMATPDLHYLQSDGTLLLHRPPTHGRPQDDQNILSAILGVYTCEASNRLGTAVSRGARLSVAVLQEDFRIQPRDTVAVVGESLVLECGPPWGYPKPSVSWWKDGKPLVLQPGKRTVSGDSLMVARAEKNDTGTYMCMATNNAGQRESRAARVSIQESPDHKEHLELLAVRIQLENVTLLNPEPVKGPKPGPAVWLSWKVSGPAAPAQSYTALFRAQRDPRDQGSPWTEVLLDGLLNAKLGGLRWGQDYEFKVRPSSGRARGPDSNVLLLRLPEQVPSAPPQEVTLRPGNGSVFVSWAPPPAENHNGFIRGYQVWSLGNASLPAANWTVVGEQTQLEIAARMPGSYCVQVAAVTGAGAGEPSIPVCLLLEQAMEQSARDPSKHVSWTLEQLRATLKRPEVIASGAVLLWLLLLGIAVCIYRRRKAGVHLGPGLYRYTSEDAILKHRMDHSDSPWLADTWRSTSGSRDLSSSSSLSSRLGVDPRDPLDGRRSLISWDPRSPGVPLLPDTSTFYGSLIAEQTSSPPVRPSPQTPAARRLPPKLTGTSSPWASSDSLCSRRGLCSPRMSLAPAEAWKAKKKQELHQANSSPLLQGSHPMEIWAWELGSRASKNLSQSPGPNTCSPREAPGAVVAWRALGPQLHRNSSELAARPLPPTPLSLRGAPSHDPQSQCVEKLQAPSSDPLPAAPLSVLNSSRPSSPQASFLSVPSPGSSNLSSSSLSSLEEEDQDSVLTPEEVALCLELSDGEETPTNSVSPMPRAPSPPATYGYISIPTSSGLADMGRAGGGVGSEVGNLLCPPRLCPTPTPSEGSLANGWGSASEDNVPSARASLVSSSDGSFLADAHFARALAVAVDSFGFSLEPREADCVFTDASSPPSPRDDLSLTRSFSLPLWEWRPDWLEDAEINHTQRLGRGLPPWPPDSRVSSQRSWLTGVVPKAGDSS

binding result [1]: no binding (tested: 10 µg/mL)
B1: anti-ROBO4 mouse monoclonal antibody MAb1 (antibody, mouse IgG1, V domains shown)
VH: EVQLVESGGGLVKPGGSLKLSCAASGFTFSTYAMSWVRQTPEKRLEWVATISNGGTYTYYPDSVKGRFTISRDNAENTLYLQMSSLRSEDTAMYFCARLIYYDYLDYWGHGTTLTVSS
VL: DAVMTQTPLSLPVSLGDQASISCRSSQSLENSNGNTYLNWYFQKPGQSPQLLIYRVSNRFSGVLDRFSGSGSGTDFTLKISRVEAEDFGVYFCLQVTHVPWTFGGGTKLEIKR
notes: Mouse IgG1 (gamma1), kappa light chain, purified from hybridoma supernatant; also called parent antibody MAb1

binding result [2]: no binding (tested: 10 µg/mL)
B2: humanized MAb1 antibody H-2140 (antibody, human IgG2, kappa, V domains shown)
VH: EVQLVESGGGLVQPGGSLRLSCAASGFTFSTYAMSWVRQAPGKRLEWVATISQGGTYTYYPDSVKGRFTISRDNAKNTLYLQMNSLRAEDTAVYYCARLIYYDYLDYWGQGTLVTVSS
VL: DIVMTQSPLSLPVTLGEPASISCRSSQSLENSNGNTYLNWYLQKPGQSPQLLIYRVSNRFSGVPDRFSGSGSGTDFTLKISRVEAEDVGVYYCLQVTHVPWTFGPGTKVDIKR
notes: Human IgG2 / kappa constant regions; also called hMAb1-H4-type heavy chain + hMAb1-L1-type light chain

— patent publication US20150098945A1 (Daiichi Sankyo, published 2015)
